# In a protein production outcome set (Wang et al. 2014):
# Experiment: label from the status in PepcDB records
row,Sequence,protein production
1,MVKHARVRAPELVGRGGWINTGDRELSLAALRGRIVVLDFWTFCCVNCLHALDELRELEERHRDTVVIVGVHSPKFTHEAEHRAVLDAVERYSVEHPVLDDPERVTWRQYAVRAWPTLAVIDPEGYVVAQYTGEGHAHAIQRLVEELEARHAAKGTLRRGDAPYVAPEPEPTTLRFPGKAVSLPSGTFLVSDTTRHQLVELAEDGESPVRRIGSGRRGFTDGPADRAEFSEPQGLALLGDGSVVVADTVNHALRRYEPVTGEVTTLAGTGRQHRPGEPSRGAARAVSLSSPWDVALWNDRVWIAMAGVHQLWAYDPRDGSVTVTAGTGNEGLVDGPGPEAWFAQPSGLSATDDRLWVADSETSALRWVELDGTVRTAVGTGLFDFGHRDGPAARALLQHPLGVAALPDGSVVVADTYNHALRRYAPPTGEVSTLATDLREPSDAVVVGGDVLVVESARHRLTRLRLPHDALGTGSGEAVLRGTTEAAPGTLRLEVAFRALAGQKLDQRYGPATRLLVSATPPELLRAGEGAGTELSRSLDLDPSVPEGMLHVSATAASCDDDLDVPYPACHVHQKDWKIPVRLVEGASDRLPLVLTGVDTA,failed
2,MVKHLQVRGRLYYRSLAHGLRLTMRRLLFCFLLVLTSLTAIAAEPARPKVGLVLSGGAARGLAHIGVLKALEEQGVRIDAIAGTSMGAVVGGLYASGYSVEELEKLATTLDWQQALSDAPPREDVPFRRKQDDRDFLVKQKLSFRDDGSLGLPLGVIQGQNLSLLLESKLAHTADTRDFDKLPIPFRAVATDIASGEKVVFRRGHLPQVIRASMSIPAVFAPVELDGRLLVDGGMVDNIPVDVAREMGVDLAIVVDIGTPLRDRKQLLTVVDVLNQSITLMTRRNSEEQLASLHRDDILIQPSLTAFGVTDFGRARHMIDAGYRATRLLDPRLAALRQLEGDASLAVARSPRQRTPVITAIRIENDSKVSDDVIRSYIRQPIDAPLELDRLQTDMGTLYGLDYFDRVQYRVVHKGNDHTLVINARGRRGGTDYLRLGLNLSDDLRGDSAFNLGASYRVNGINSLGAEWLTRGQIGDQQALYSEFYQPLDVGSRYFIAPYLDLGSQNIEATLDNDPVAEYRLERYGFGLNVGRQIGNSGEVRLGVGKAWGEAEVRIGDQDLPKVSFNEGFYELKYSFDTLDNVYFPHHGEDIGLTLRKYDKSLDSDQDYRQWLFTLDKAISSGPNTFVLGGSYGRTLDDTEVVTSSFVMGGARQLSGFREDSVSGQNASLLRMVYYRRLTPRAYVPLDFPLYIGGSLERGRAWNNDNEFDSGYINAASIFLGLDTPLGPLNFSYGANSAHEQAVYLNLGHTF,failed
3,MVKHQQTPAYIAAILYSFIIGLSFLFVKIALQTAEPFDILAHRFTIAFAAATVPILFGWVKLSILVKDVIDILPLALLYPALFFSFQAFGLVYSSSSEAGIIQAAIPIFTMVFAAYVLKERPTWTQKGFTVLSVAGVMFIFVMKGVDVESASLKGSLLILLSALSSAMYNTAARKMTQRFKLTELTYIMSAIGFVVFNAIALVRHGAAGTVGTYFLPFREPGFVLAIVYLGVLSSLVTSFLSNYTLSRIEAFKMSAFNHVSTIVTMIAGFVILNESLAWYHLAGAVCIMIGVVGSNINLEKKTKRPGMPAKK,failed
4,MVKNGQSKRQPWVKNLYSNREYPDNYTDASFLKDLRTNLHCRIYTFGEAIAGITVLNNQISCITGFLILYQLMLSDSVSPTTILVPSCGITGIGYLCYRGRSLSWALLGEDSKTLVTVVLFGYLFSPMLHTLTQAISTDTIYTMTFFVLLGNLIFGHYGLDVAMVSKVGNIYGYWSQAVSLNAAIFGAICLASRLPTSYHAFVLLVEAAVFFVLYPIMTEANWHAGFMLPIFAICCMALYCISRPVLYLYASTTIFINFVCPFIFVWQQQYKFNIHGPWDEAIVEENTEENLDGNL,failed
5,MVKVIFFDLDDTLVDTSKLAEIARKNAIENMIRHGLPVDFETAYSELIELIKEYGSNFPYHFDYLLRRLDLPYNPKWISAGVIAYHNTKFAYLREVPGARKVLIRLKELGYELGIITDGNPVKQWEKILRLELDDFFEHVIISDFEGVKKPHPKIFKKALKAFNVKPEEALMVGDRLYSDIYGAKRVGMKTVWFRYGKHSERELEYRKYADYEIDNLESLLEVLARESSSNKKVHPPRQQI,not failed
6,MVKVTYDGVYVLSVKDDVPAADVLHAGDLITEIDGNAFKSSQEFIDYIHSKKVGDTVKINYKHGDKNEQADIKLTAIDKKGTPGIGITLVDDLEHHHHHH,not failed
7,MVKVYAPASSANMSVGFDVLGAAVTPVDGTLLGDVVSVEAADHFRLHNLGRFADKLPPEPRENIVYQCWERFCQALGKTIPVAMTLEKNMPIGSGLGSSACSVVAALVAMNEHCGKPLNDTRLLALMGELEGRISGSIHYDNVAPCFLGGMQLMIEENGIISQ,failed
8,MVKWYKTYLEVYGKSFDEISDDSIRKVKRQLKERQNDSPLVSVVLIAHNEERHLISCIWSLSENHCHFPIEIIAVNNNSTDKTEEILKSLGVTYYNETKKGPGYARQCGLDHAKGKYHICIDADTLYPPHYIETHVKYLMNPKVACTFSLWSFMVDERHSRFGLWCYEGLRDIYLRLQAIQRPELCVRGMAFSFNTEIGRRFGFRTDIIRGEDGSLALAMKPYGKIVFITSRKARVLTSNGTLNSEGSLIDNIWIRVIKALKEITGLFIKKTAYKDKDSNLIKLEHHHHHH,failed
9,MVLAVLFPTYPAYEFAGYALPGVSTTLGVFSLTVLTNTVLFALAYPLVLGARNALTGNVSVVMFVGRRVAADDLATVHGSLLESSAGGFTRSGLDLDALRMYLRWRDCTLADLRSDPGLRHPDTLPDTPGDPTDGAVATDGSGDPWGAAAFLADIDHSAYGTTPAQLRDGLDLITDHDDVWVTPGVPFLLPLFAGLVVALTFGDVLFYVLDALGFAAA,failed
10,MVLEHCRDAIESHGVETDIISLRGMKIESCRACLSCAKKHRCRIDDGLNDIIDRIRDSEGFIVATPVYFGTARGDLMAALQRIGMVSRASDGFLSWKVGGPIAVARRGGHTATIQELLMFYFINDMIVPGSTYWNMVFGWAPGEVEDDSEGIETIRRFGENVAELIKRINGGSLEHHHHHH,failed
11,MVLLSIDFASLHTILESLYNEMMPLCEDMLGVAKGVAGLGALFYVALRVWQSMARAEPVDVYPLLRPFALGICILLFPTLVLGTMNSILSPIVQGTHRMLEGQTLDMQQYRAQKDRLEREAMMRNPETAYLVSDEEFDRQLDELGWSPGDAATRLGMYMEVGMYNLEKSIRDAFRSLLELLFAAASLLIDTVRTFFLVVLSVLGPIAFSISVWDGLQSTLGQWFTRYISVYLWLPVSDLFSCMLAKIQVLMLQNDIAELQGNPDYSLDNSNCVYIIFMLIGIVGYFTVPTVSGWIVQAGGGGNYSRNLNRTATKAGGFTAGAGGAALGNIGGRIRGK,failed
12,MVLPPVFYLARMWLMSQDSRVFFRIFFGIGLVLILISVVIFYNQFTYSKDAIHTEGVIVDTVWHSSHSHRTGKNGSWYPVVAFRPTPDYTLIFNSSIGSDFYEDSEGDKVNVYYSPGHPEKAEINNPWVNFFKWGFIGIMGVIFISVGLLISMPSSKKTRRKRKSRP,failed
13,MVLQKLPLIGLLLLLTIVASPANADGPVCPPSNKLSRASFPEGFLFGTATAAYQVEGAINETCRGPALWDIYCRRYPERCNNDNGDVAVDFFHRYKEDIQLMKNLNTDAFRMSIAWPRIFPHGRKEKGVSQAGVQFYHDLIDELIKNGITPFVTVFHWDTPQDLEDEYGGFLSERIVKDFREYADFVFQEYGGKVKHWITFNEPWVFSHAGYDVGKKAPGRCSSYVNAKCQDGRSGYEAYLVTHNLLISHAEAVEAYRKCEKCKGGKIGIAHSPAWFEAHDLADSQDGASIDRALDFILGWHLDTTTFGDYPQIMKDIVGHRLPKFTTEQKAKLKASTDFVGLNYYTSVFSNHLEKPDPSKPRWMQDSLITWESKNAQNYAIGSKPLTAALNVYSRGFRSLLKYIKDKYANPEIMIMENGYGEELGASDSVAVGTADHNRKYYLQRHLLSMQEAVCIDKVNVTGYFVWSLLDNFEWQDGYKNRFGLYYVDFKNNLTRYEKESGKYYKDFLSQGVRPSALKKDEL,failed
14,MVLYFIGLGLYDERDITVKGLEIAKKCDYVFAEFYTSLMAGTTLGRIQKLIGKEIRVLSREDVELNFENIVLPLAKENDVAFLTPGDPLVATTHAELRIRAKRAGVESYVIHAPSIYSAVGITGMHIYKFGKSATVAYPEGNWFPTSYYDVIKENAERGLHTLLFLDIKAEKRMYMTANEAMELLLKVEDMKKGGVFTDDTLVVVLARAGSLNPTIRAGYVKDLIREDFGDPPHILIVPGKLHIVEAEYLVEIAGAPREILRVNV,not failed
15,MVMFRGHLLCFGLGYSALRLARGLLRDGWRVSGTCRSEEKRQALSAQGITAFVFDETTPLPAEAWTGVTHVLVSIPPGPDGDPVLALHRADLLALRPEWLGYFSTTGVYGDTGGAWVDEGKPVRPTQERSKRRVAAEEDWLDLWRDEDLPVHLLRLAGIYGPGRSVFDQLRAGTAKRIIRPGHAFSRIHVDDIGLITRASMADPDPGAIYNLVDDEPAEPSEVMDHACALLGIDPPPAQSFDEVAPGLSPMALSFWADNRKVSNERLWDDLRLRLLYPTFRQGLEAILAEETGRVAEGPPVYKEASDC,failed
16,MVMPVKKVEKNILVLHGADKMFELVDKVEDYPHFLPWYSKTEVIGRSGNELKARLFMDYMHVRQSFATHNRNIPGREIRMELLEGPFKTLRGTWKFIDLGDDMCKIEFNLEYDFSNAVLSALISPVFNHLSVTLVEAFVKEADRRYA,failed
17,MVNEYKRIVLLRGLECINKHYFSLFKSLLARDLNLERDNQEQYTTIQIANMMEEKFPADSGLGKLIEFCEEVPALRKRAEILKKERSEGETSLEKNGQEAGPATPTSTTSHMLASERGETSATQEETSTAQAGTSTAQAGTSTAQAGTSTA,not failed
18,MVNFAVWLDGVILKIDLTDSLYKIYKGDQISLPITYEVNDDWIKVYDRIREANLAILSPYDEITTKAILERINLKPTYVIANRGKTKPSREPYRILIEVTGWDPLQVVTLASSPLDLLSARFFDSRIKVICVKRYQDCSKYSPFLYSENLDDAISSLKRLKIIR,failed
19,MVNLMILSGIVLLTCIISSKIFYKWGVPVLLVFIIIGMLFGSDGIGGIYFDNYNITYSLSSIALVFIMFYGGFCTEWKKARSVAIPSIMLSTLGVIITAGLTGLFCHFVLKTSIFEGLLLGCIVASTDAASVISILRSRNLKLKNNIDTLVEFESGSNDPTAYMLTSVMLIFITSNESVGIGLLGMIFKQIVFGVTVGLFLSKLAVFILRKVEFEIEGLYPIFTITVAILAYSISEFLGGNGYLSVFIAGIVMGNSKIPHKKSLNHFFDGLSWIMQIILFFMLGLLAFPSQLPSIAFEGIAISIFLILVGRPIAVFTILSWFKVPIKEQMFISWVGLRGAGSLVFAIYAITKTSAIENDIFHIIFFIALFSVAIQGTLIPWFAKKLDLICYEDDNHEDNMKNNIKDYIFEVKVGENNKVVNKAIMDSEIPDEILIVMIKRDNKVVIPKGFTIIKPNDTLVLTSENNEIMNSFLDEIR,failed
20,MVNQNLTATEIGFTHEDFAALLDKYDYHFSPGDVVPGTVFSIEPRGALIDIGAKTAAYIPIQEMSINRVDAPEEVLQSNETREFFILTDENEDGQLTLSIRRIEYMRAWERVRQLQAEDATVRSGVFATNRGGALVRIEGLRGFIPGSHISTRKPKEELVGEELPLKFLEVDEERNRLVLSHRRALVERKMNRLEVGEVVIGTVRGIKPYGAFIDIGGVSGLLHISEISHEHIDTPHSVFNVNDEVKVMIIDLDAERGRISLSTKQLEPEPGDMIKNRDLVYDKAEEMAAKYREQLLAKQQGITLPAEGAEDLIEEEIPPATEDAVAEEEIVAVEEIPAAIEE,failed
21,MVPDWEEVLGLWRAGRYYEVHEVLEPYWLKATGEERRLLQGVILLAAALHQRRLGRPGLRNLRKAEARLEGLPCPLMGLDWRSLLQEARRRLGA,not failed
